# From paper PMC9637899, “Outer surface lipoproteins from the Lyme disease spirochete exploit the molecular switch mechanism of the complement protease C1s” (The Journal of Biological Chemistry, 2022)
# T1: activated C1s–CCP1–CCP2–SP (human, UniProt P09871 292-688)
# T1 construct: human complement C1s, C-terminal domains CCP1, CCP2 and serine protease (SP); Cleaved by C1r into two chains (confirmed by reducing SDS-PAGE); Tag removal is inferred: only the c-Myc S632A form 'was not subjected to His-TEV cleavage'; also called wildtype C1s–CCP1–CCP2–SP
# T1 sequence: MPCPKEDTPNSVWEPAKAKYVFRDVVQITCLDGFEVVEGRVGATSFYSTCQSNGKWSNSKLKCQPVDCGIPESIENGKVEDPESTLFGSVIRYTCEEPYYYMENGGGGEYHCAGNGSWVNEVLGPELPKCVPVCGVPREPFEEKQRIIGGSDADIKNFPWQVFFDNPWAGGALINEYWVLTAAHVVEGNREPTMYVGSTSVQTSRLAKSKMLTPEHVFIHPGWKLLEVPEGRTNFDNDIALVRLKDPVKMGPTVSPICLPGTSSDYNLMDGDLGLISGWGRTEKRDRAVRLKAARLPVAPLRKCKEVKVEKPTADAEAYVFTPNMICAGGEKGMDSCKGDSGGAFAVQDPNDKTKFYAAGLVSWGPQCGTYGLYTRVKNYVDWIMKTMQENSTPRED
# Molecular target: T1, activated C1s–CCP1–CCP2–SP
# Assay: SPR; Elp truncation amine-coupled to a CMD200 chip; multicycle twofold injection series of C1s enzyme or activated C1s–CCP1–CCP2–SP constructs from 200 nM; HBS-T Ca2+ (10 mM Hepes pH 7.3, 140 mM NaCl, 0.005% Tween-20, 5 mM CaCl2), 30 ul/min; K_(D, kin) from a kinetic and K_(D, ss) from a steady-state 1:1 (Langmuir) fit; triplicate
# Settings: both partners purified
binder,measurement,value
"ElpB_(182–378) (domain or fragment, ElpB (ErpB) of B. burgdorferi, residues 182-378; also called C-terminal domain of ElpB; not shown: His6 (from the vector pT7HMT), N-terminal, cleaved; c-Myc (from the vector pT7HMT), N-terminal, cleaved) QERKAKAEKEAKEKAERQKQEEQQKRKAEKEREEQRKEAEKRQVDNEIRTLTGKIDEINRNIDVIKEQTSVGAQGVIDRITGPVYDDFTDGNKAIYKTWGDLEDDNDEGLGKLLKELSDTRHNLRTKLNEGNKAYIIDTRSTEPQLKENVSVSEIKSDLDELKSKLEEVKEYLEDKDNFEEIKEYVAGSEDNYDEED",Kd,360 ± 17 nM
